Experimental data taken from patent US10202593B2, “Evolved sortases and uses thereof” (President and Fellows of Harvard College, priority 2013, dated 2019).
Read-outs that look alike come from different tables or passages of the source.

Assays:
[1] = test system: LPETG (Abz-LPETGK(Dnp)-CONH2); assay: In vitro sortase kinetics HPLC assay, LPETG substrate; type: biochemical; settings: substrate wt (LPETG)
Protocol: (§1) See below for details on sortase expression and purification, and on the synthesis of Abz-LPETGK(Dnp)-CONH2 (SEQ ID NO: 19). […] Reactions were initiated with the addition of enzyme and incubated at 22.5° C. for 3 to 20 minutes before quenching with 0.5 volumes of 1 M HCl. Five to ten nmol of peptide from the quenched reactions were injected onto an analytical reverse-phase Eclipse XDB-C18 HPLC column (4.6×150 mm, 5 μm, Agilent Technologies) and chromatographed using a gradient of 10 to 65% acetonitrile with 0.1% TFA in 0.1% aqueous TFA over 13 minutes. Retention times under these conditions for the Abz-LPETGK(Dnp)-CONH2 (SEQ ID NO: 19) substrate, the released GKDnp peptide, and the Abz-LPETGGG-COOH (SEQ ID NO: 20) product were 12.8, 10.4, and 9.1 min, respectively. To calculate the percent conversion, the ratio of the integrated areas of the Abz-LPETGGG-COOH (SEQ ID NO: 20) and Abz-LPETGK(Dnp)-CONH2 (SEQ ID NO: 19) peptide Abs220 peaks was compared to a standard curve generated by mixing the product and starting peptide in known ratios. To determine […] and Km, reaction rates were fit to the Michaelis-Menten equation using OriginPro 7.0 software. All kinetics values reported represent the average of at least three measurements. Percent conversion was also calculated by using the ratio of the integrated areas of the GK(Dnp)-CONH2 and Abz-LPETGK(Dnp)-CONH2 peptide Abs355 peaks were compared directly (Example 5). To determine kcat and Km, LPETG, reaction rates were fit to the Michaelis-Menten equation using Microsoft Excel using the Solver add-in. To determine Km,GGG and KH, reaction rates were fit to the modified Michaelis-Menten, for which KH is as defined when KH<<Km,GGG.
(§2) Assays to determine eSrtA, eSrtA(2A-9) and eSrtA(4S-9) specificity were performed by preparing 10 μM stocks of Abz-LXEXGK(Dnp) (SEQ ID NO: 75) peptides in 300 mM Tris pH 7.5, 150 mM NaCl, 5 mM CaCl2, 5% v/v DMSO, and 100 mM Gly-Gly-Gly-COOH (GGG). Reactions were performed by adding eSrtA(2A-9) to a final concentration of 450 nM, eSrtA(4S-9) to a final concentration of 115 nM or eSrtA to a final concentration of 47.5 nM and a final volume of 100 μL, then incubating at 22.5° C. for 15 minutes. Reactions were quenched by the addition of 0.2 volumes of 5 M HCl, then were injected onto an analytical reverse-phase Eclipse XDB-C18 HPLC column (4.6×150 mm, 5 μm, Agilent Technologies) and chromatographed using a gradient of 10 to 65% acetonitrile with 0.1% TFA in 0.1% aqueous TFA over 13 minutes. Retention times under these conditions for the Abz-LPETGK(Dnp)-CONH2 (SEQ ID NO: 19) substrate, the released GKDnp peptide, and the Abz-LPETGGG-COOH (SEQ ID NO: 20) product were 12.8, 10.4, and 9.1 min, respectively, while the remaining Abz-LXEXGK(Dnp)-CONH2 (SEQ ID NO: 74) substrates varied in retention time between 9 and 13 minutes. To calculate the percent conversion, the ratio of the integrated areas of the GK(Dnp)-CONH2 and Abz-LPETGK(Dnp)-CONH2 (SEQ ID NO: 19) peptide Abs355 peaks were compared directly. Subsequent determination of kcat/Km and KH were performed as described for in vitro SrtA characterization.
(§3) In each case, rate constants were determined by measuring enzyme velocity at eight different substrate concentrations by HPLC assay, then fit using nonlinear regression to the Michaelis-Menten equation, yielding kcat and Km. KH was calculated by measuring enzyme velocity at 1 mM target substrate and eight different GGG concentrations by HPLC assay, then fitting the resulting curves using nonlinear regression to the modified Michaelis-Menten equation.

mouse tissues = assay: Tissue modification with GGG-Biotin (SA-568 fluorescence)
Protocol: FIG. 10 is a graph showing the relative increase in fluorescence of mouse tissues specifically labeled with GGG-Biotin (detected with SA-568) using a sortase recognizing the LPESG (SEQ ID NO: 3) sortase recognition motif.
Tissue section microarrays were purchased from the BioChain institute (Cat. Z7020001, Lot B508112) and deparaffinized by treatment with 2 changes Xylene for 9 minutes each, 1 change 1:1 Xylene:Ethanol for 3 minutes, 1 change 100% ethanol for 3 minutes, 1 change 90% ethanol for 3 minutes, 1 change 70% ethanol for 3 minutes, 1 change 70% ethanol+0.25% ammonia for 1 hour, 1 change 50% ethanol for 3 minutes, 1 change DI water for 5 minutes. Antigen retrieval was achieved by soaking in 10 mM Citrate pH 6 followed by microwave heating for 2 minutes, then let to rest for 8 minutes. Tissues were washed with 10 mg/mL freshly prepared Sodium borohydride in PBS for 30 minutes on ice, then washed twice with PBS for 3 minutes each.
Slides were blocked in 5% BSA/PBS for 1 hour at room temperature, then 0.001% (w/v) avidin in 5% BSA/PBS for 15 minutes, washed with 5% BSA/PBS, 0.001% (w/v) biotin in 5% BSA/PBS for 15 minutes, washed with 5% BSA/PBS and washed twice in TBS-BC (100 mM TBS, 500 mM NaCl, 0.5% BSA, 5 mM CaCl2) for three minutes. Slides were then treated with 20 uM Enzyme and 200 uM GGG-Biotin for 1 hour at room temperature, washed with 10 mM GGG in 5% BSA/PBS for 3 minutes, then washed twice with 5% BSA/PBS for 3 minutes. Slides were then treated with 2 mg/mL Sudan Black B in 70% EtOH for 30 minutes, washed three times with 5% BSA/PBS, incubated in 5% BSA/PBS+1:250 Streptavidin-568 for 30 minutes, washed 3 times with PBS, incubated with DAPI/PBS for 30 minutes and finally washed 3 times with PBS. Slides were dried, mounted and then visualized by confocal microscopy.
Tissue staining was performed as described previously, with biotin signal false colored in red and DAPI stain false colored in blue. In each case, total integrated biotin signal was computed for both negative control and SrtA+ samples, then background subtracted and used to calculate the total fluorescence enrichment shown in FIG. 10.

[2] = test system: LPESG (Abz-LPESGK(Dnp)-CONH2); assay: In vitro sortase kinetics HPLC assay, LPESG substrate; type: biochemical
Protocol: as §1, §2, §3

B1: 4S.6A: 5mut + N98D A104V A118S F122A K134G I182V E189V (protein)
chain: QAKPQIPKDKSKVAGYIEIPDADIKEPVYPGPATREQLDRGVSFVEENESLDDQNISISGHTAIDRPNYQFTNLGAAKKGSMVYFKVGNETRKYKMTSIRNVKPTAVEVLDEQKGKDKQLTLVTCDDYNVETGVWETRKIFVATEVK
[1]; 10 mM GGG
  kcat, 10 mM GGG (Hz): 1.102 Hz
[1]; read-out: Km, LxExG
  Km: 1290 µM
Mouse tissues; bladder tissue
  labeling of tissue with GGG-Biotin: specific labeling
Mouse tissues; pancreas tissue
  labeling of tissue with GGG-Biotin: specific labeling
Mouse tissues; prostate tissue
  labeling of tissue with GGG-Biotin: specific labeling
Mouse tissues; small intestine tissue
  labeling of tissue with GGG-Biotin: specific labeling
Mouse tissues; spleen tissue
  labeling of tissue with GGG-Biotin: specific labeling
Mouse tissues; testis tissue
  labeling of tissue with GGG-Biotin: specific labeling
Mouse tissues; uterus tissue
  labeling of tissue with GGG-Biotin: specific labeling
[2]; 1 mM 4S (LPESG) substrate
  Khydrolysis: 179.3 µM
[2]; 1 mM 4S (LPESG) substrate, GGG varied
  kcat, 1 mM LxExG (Hz): 1.931 Hz
[2]; 1 mM 4S (LPESG) substrate, read-out: Km, GGG
  Km: 4950 µM
[2]; FIG. 2
  increase in kcat/Km for LPESG as compared to LPETG: ~5 fold
[2]; ratio of kcat/Km between 4S (LPESG) and wt (LPETG) substrates
  specificity (relative cat. Efficiency, fold): 11 fold
[2]; substrate 4S (LPESG)
  kL/KL/KH: 5.24E+07
[2]; substrate 4S (LPESG), 1 mM, GGG varied
  kHydrolysis (Hz): 0.06696 Hz
[2]; substrate 4S (LPESG), 10 mM GGG
  kcat, 10 mM GGG (Hz): 0.9537 Hz
[2]; substrate 4S (LPESG), read-out: Km, LxExG
  Km: 102 µM
